The values that follow come from the DeepSol protein solubility set.

The nature of this data set: soluble on expression in E. coli; label from the status in PepcDB or PDB records.
With “SSTDQGTNPADTDDLTPTTLSLAGDFPKATEEQWEREVEKVLNRGRPPEKQLTFAECLKRLTVHTVDGIDIVPMYRPKDAPKKLGYPGVAPFTRGTTVRNGDMDAWDVRALHEDPDEKFTRKAILEGLERGVTSLLLRVDPDAIAPEHLDEVLSDVLLEMTKVEVFSRYDQGAAAEALVSVYERSDKPAKDLALNLGLDPIGFAALQGTEPDLTVLGDWVRRLAKFSPDSRAVTIDANIYHNAGAGDVAELAWALATGAEYVRALVEQGFTATEAFDTINFRVTATHDQFLTIARLRALREAWARIGEVFGVDEDKRGARQNAITSWRELTREDPYVNILRGSIATFSASVGGAESITTLPFTQALGLPEDDFPLRIARNTGIVLAEEVNIGRVNDPAGGSYYVESLTRSLADAAWKEFQEVEKLGGMSKAVMTEHVTKVLDACNAERAKRLANRKQPITAVSEFPMIGARSIETKPFPAAPARKGLAWHRDSEVFEQLMDRSTSVSERPKVFLACLGTRRDFGGREGFSSPVWHIAGIDTPQVEGGTTAEIVEAFKKSGAQVADLCSSAKVYAQQGLEVAKALKAAGAKALYLSGAFKEFGDDAAEAEKLIDGRLFMGMDVVDTLSSTLDILGVAK”, the “soluble on expression in E. coli” value is on record as “soluble”. The value for “FCKELPRPELPYSEMSAIGSLIQALPASCALHLANSSAVRYAQLYSLPDTVEVCCNRGTSGIEGSLSTAIGYAAASKKLNFVVIGDLSFFYDMNALWNNHFGSNLRILLLNNGGGEIFHTLPGLEMSGTSHRFVTAVHKTSAKGWAEERGFLYQEVQDEKQLDEAMKTFTQPELLTQPVIMEVFTNKNKDARILKDYYHQLKN” was “not soluble”; that for “MGSDKIHHHHHHMQRFKKWFLSIIKNFKQHEKIKIDLNNTKIDLNNTKIDLNNTKIDLNNTKIDLNNTKIDLNNTKIDLNNTKIDLNNTKIDLNNTKIELSQLKKEHYKVLDFHLRKITPQAFLEIVEIHLAESCNLNCFGCNHFSQIAEKEFPDIEIFKKDMQRLSEISKGIVGTFRLMGGEPLLNPNCIQFFDITRYFFPKSAIWLVTNGILLDKQNEDFWNSCQRNKMQIRPTKYPIKINWDLIKDKCDQYDIPLIFFNNGELEKTSWKFSLDPSGNCDNYHSFTNCSMANHCVQFKDGKLFTCTFPAHVQHFNKKYGNHFEVCEFDFIDIYKAKDYQEILFFLSKPIPFCRYCKVSQWAEIGKWRSSNKTKHEYLI” was “not soluble”.

For the sequence “MGSDKIHHHHHHMTVKAKRFRIGVEGATTDGREIQREWLVQMAASYNPTVYTALINLEHIKSYLPESTFNRYGRVTGLVAEEIQDGPLAGKMALYADIEPTDALVELVKKGQKLFTSMEVSTKFADTGKAYLVGLGATDDPASLGTEMLAFSASAAHNPLANRKQNPENLFSEAVETLIELEEVQDEKPSLFARVTALFTKKEQTDEARFSDVHKAVELVASEQQNLSERTDKSLSEQDKRLSELESSLQEQLAAFAELEQKLSSEDSRKDYRQRAPGGDAPAGTLTNC”, the “soluble on expression in E. coli” value is recorded as “not soluble”.

As for “MKQADQTYRGQFKDDLYDGAGQLELADGSRYQGLFAKGKPNGAGVRSDASGNQFSGHFVNGQLQGAGTYDSVDGEQYIGEFKDNRLEGRGRYENADGDVWIGEFKDGSLIGEGELLGSDGSHYKGEFADWRLSGQGSLQLADGSKYIGGFLNDAYHGHGRLILPSGKVESGTWANGVRVRDQNGKLLPDPLDLALLNQGRLLDEALVRVPRSAPPIQLYSLVVAGDGQQSVFLREADYVSRMLKVRFGARGQVTLVNHRDHMATRPMATRENLSRAAATLAERSGPEDLVFIYLTSHGSQDHQLVLDQPRLQLADLAADELATALAPLKDRDKVIVISACYSGGYIAPLKDERTLIMTAARADRVSFGCSEEADFTYFGDALFAEALNQTDDLKQAFELARASVAEREQREGFEASEPQLWAPPAVLEHWHQLRQQQAEEALRNATQANVSKQAKMPGTHLEHHHHHH”, the “soluble on expression in E. coli” value is listed as “soluble”.

Regarding “MRCPGCGAAIQFDDPKKPGYIPREVFEKRLEEGKEILCQRCFRMKHYGKLEPVEFDWDFKNQLKSYLGGFDVVVWVIDIFDFEGTYREDIAEILKGKRVIYVINKIDLLPRAVTVKEIKEWVKKRIKTKNTDDIRIVSAEKNFGLTSLVKYLSRLTDKALVVGVTNVGKSSLLNKICTHENTISPFPGTTLGILKRKVKEANLYLYDTPGIMTSDRILDLLDPECQKRVLPREELSRKTFKPDNGRTIFMGGLCRFDIHFETEKNPIFLLFSSKEVTFHETRRERADELMRNRLGDLLIPPCSKTKFENFKWKRETFTLKEGEELAVAGLGWMSVRRGPFTVEVTVPDSVKLVVREALVNPKRLEHHHHHH”, the “soluble on expression in E. coli” value is listed as “soluble”. Take “MAHHHHHHMSQLAHNVNLSIFEPISHHRANRIVCTIGPSTQSVEALKGLIRSGMSVARMNFSHGSHEYHQTTINNLRAAATELGAHIGLALDTKGPEIRTGLFKDGGIALAPGDTVLVTSDPAFEKIGTKEKFYIEYPRLSITVRPGGFIYIDDGVLSLKVLSKEDEYTLKCYVNNAHFLTDRKGCNLPGCEVDLPAVSEKDREDLKFGVEQGIDMVFASFIRTAEQVQEVREALGEKGKDILIISKIENHQGVQNIDGIIEASDGIMVARGDLGVEIPAEKVVVAQMILISKCNVAGKPVICATQMLESMTTNPRPTRAEVSDVANAVFNGADCVMLSGETAKGKYPNEVVQYMARICLEAQSATNQAVMFNSIKKMQKLPMSPEEAVCSSAVNSVYEVRAKALLVLSNSGRSARLASKYRPDCPIICATTRMRTCRQLTITRSVDAVFYDAERYGEDENKEKRVQLGVDCAKKKGYVVPGDLMVVVHADHKVKGYPNQTRIIYVS”: the “soluble on expression in E. coli” value is recorded as “not soluble”. The value for “MNNHFKCIGIVGHPRHPTALTTHEMLYRWLCTKGYEVIVEQQIAHELQLKNVKTGTLAEIGQLADLAVVVGGDGNMLGAARTLARYDIKVIGINRGNLGFLTDLDPDNAQQQLADVLEGHYISEKRFLLEAQVCQQDCQKRISTAINEVVLHPGKVAHMIEFEVYIDEIFAFSQRSDGLIISTPTGSTAYSLSAGGPILTPSLDAITLVPMFPHTLSARPLVINSSSTIRLRFSHRRNDLEISCDSQIALPIQEGEDVLIRRCDYHLNLIHPKDYSYFNTLSTKLGWSKKLFMAGDPLEHHHHHH” was “soluble”; that for “MGLSDWELAAARAAIARGLDEDLRYGPDVTTLATVPASATTTASLVTREAGVVAGLDVALLTLNEVLGTNGYRVLDRVEDGARVPPGEALMTLEAQTRGLLTAERTMLNLVGHLSGIATATAAWVDAVRGTKAKIRDTRKTLPGLRALQKYAVRTGGGVNHRLGLGDAALIKDNHVAAAGSVVDALRAVRNAAPDLPCEVEVDSLEQLDAVLPEKPELILLDNFAVWQTQTAVQRRDSRAPTVMLESSGGLSLQTAATYAETGVDYLAVGALTHSVRVLDIGLDM” was “soluble”. Then “MGCSSQTHSSQKETTIPVTLHVEDAKGLPVEGVQVTIVKAPSSDEEPSTEIGEILGKTDKNGDIKWDTGRKGDYSVALTKGETSVTHHISLTEDKKDHAIPLVFKELEHHHHHH”, with “soluble”. Then “MAIKGLDQAIDNLSRVRKNAIPAASAMTINRVATTAINQSSSQVARETKVRRKLVKERSRLKRATVRNPNAKIIVNRGDLPVIKLGIRMLGRRPNSILKAGQHRYQRAFIQRLKNGRWHVMQRVAGKNRYPIDVVKIPMAAPLKQAFDENVDRIRCERLPGELASALKQQLRIAIKR”, with “not soluble”; and “MSLRRARIAFASIDYTGDAWRHIPSVIGEMFAGIGEHAWRRDAVLEIVGVEDEEAEGYLRRVAERRPVDGLLLRVANDIRGEHLDILERAGMPYVLIKRHIPGRRMNCVISDDVTGARMATSHLLELGHRRIGFVCGKPHLTLNRERLAGYREALEEHGVGFDEGLVRQEEHFTTEMGYRAVRSLLEAPSRPSAVFVASDTMAIGGYEAVWDLGLRIPDDVSIVGYDDIQAASALQPPLTTVRTSYYDFGRLAAQLLLDLIEGREVAPQRRVIHPTLVVRGSTREGHHHHHH”, with “soluble”. Consider “MSNENKTIHDFELNLICDFFSNMERQGPGSPEVTLKALSFIDNLTEKSLIADIGCGTGGQTMVLAGHVTGQVTGLDFLSGFIDIFNRNARQSGLQNRVTGIVGSMDDLPFRNEELDLIWSEGAIYNIGFERGLNEWRKYLKKGGYLAVSECSWFTDERPAEINDFWMDAYPEIDTIPNQVAKIHKAGYLPVATFILPENCWTDHYFTPKVAAQKIFLTKYAGNKIAEEFSMLQSIEEELYHKYKEYYGYTFFIAKKIRLLEHHHHHH”, for which the “soluble on expression in E. coli” value is “soluble”. Then “GPGSMPSPFQQTLLARAYHYVHPKTGRPIRQFRRYGDPRYINNEAALIRGQWGLITADFGMVTQSQMENARLAILRRLPRGSFTLTMHTDYEEFPVVKKSPESRMGAGKANIHHFAFKFTTGVPLFEIMPISARRLNQAEAEGIFLAGRPFIPLQTVVVPQGRVDEYHVFK”, with “not soluble”; and “MLSQLREIVEKVSRVDDVHLALDILVKETCAALRTECCTIYLANEEMQRLELMATQGLIFEGDSIHINFNEGLVGLVKRSAEPLNLAEASKHPEFKFFPQLGEQVYHSFLATPIIHRKQVLGVLVIQQKTPRLFSEMEESFLVTLSAQLAVIIAHAQSLGHWQ”, with “not soluble”; and “MSLAHEMRDGSSRGLRIDFHVHLGVYADHKPWVTEWIKQSQPDPGEYDAYIERYSDPGAFEELLAAEGVDYACVLAELCPITTGICSNEQVEAFCKGRKRLIPFCSINPHLTTDLGGELRRLVETEGFRGLKLYPSYQHYYLNDPRVYPLYQAAQELGIPVLIHTGSSVFKGTRIKYCDPIHLDDVANDFPSLNLVMAHSGRGFWYDRAFFLSKLHSNLYMEVSGLPPSKLMTYFPELARNTDKVIFGSDWPGASQIKRNMDAIGALPLPAEGVEKILGGNAARLLNFEGHHHHHH”, with “soluble”.

With “MENQVEVMTYAHLKEIMQALEANEAITEDTKVFIDTGWDSVQEVAPDAVSIEKVAKFTVADVLTNESFAGYSLEEKAEKMNAEGDLETAIIIRNLY”, the “soluble on expression in E. coli” value was “not soluble”. Then “MTGATGFIGKYIIDNLLARGFHVRALTRTARAHVNDNLTWVRGSLEDTHSLSELVAGASVVVHCAGQVRGHKEEIFTRCNVDGSLRLMQAAKESGFCQRFLFISSLAARHPELSWYAKSKYVAEQRLAAMADEITLGVFRPTAVYGPGDKELKPLFDWMLRGLLPRLGAPDTQLSFLHVTDFAQAVGQWLSAETVQTQTYELCDGVAGGYDWQRVRQLAAKARCGSVRMVDIPLPVLTGLADISTALSRLAGKEPMLTRSKIRELTHADWSASNNRISEDINWFPGISLEHALRNGLF”, with “not soluble”; and “MGSDKIHHHHHHMTKPPTLRPRFWETVPLDRMTPSEWEALCDGCGKCCLNKIEFEDTGEVAFTRIACRLLDGDSCRCSNYEIRRQFVPDCVQLSPATLPKIVYWMPRTCAYRLLHEGKSLPGWHYLLTGDRNSVHDAGASVQGWTVPEFEVAEEDWEDHIIEETP”, with “not soluble”. The value for “MDVRQVLHMKGGAGENSYAMNSFIQRQVISITKPITEAAITALYSGDTVTTRLAIADLGCSSGPNALFAVTELIKTVEELRKKMGRENSPEYQIFLNDLPGNDFNAIFRSLPIENDVDGVCFINGVPGSFYGRLFPRNTLHFIHSSYSLMWLSQVPIGIESNKGNIYMANTCPQSVLNAYYKQFQEDHALFLRCRAQEVVPGGRMVLTILGRRSEDRASTECCLIWQLLAMALNQMVSEGLIEEEKMDKFNIPQYTPSPTEVEAEILKEGSFLIDHIEASEIYWSSCTKDGDGGGSVEEEGYNVARCMRAVAEPLLLDHFGEAIIEDVFHRYKLLIIERMSKEKTKFINVIVSLIRKSD” was “soluble”; that for “MKDNERRILLGRVVGGFGLRGEIKIESWTEPRDAIFRYQPWLLRSPTGTESMLNGARGYETGKRLIATFPGINDRNGVEAICGTEIYVPRSALPPPHPDEYYWVDLEGLQVHTLEGVVLGSVSHLFSNGANDVIVIHGERERLIPFVQPDYVKSVDFEAERIVVDWDPEFLEHHHHHH” was “soluble”.
